Target: T1, TNFR1 (Homo sapiens, UniProt P19438)
T1 chain: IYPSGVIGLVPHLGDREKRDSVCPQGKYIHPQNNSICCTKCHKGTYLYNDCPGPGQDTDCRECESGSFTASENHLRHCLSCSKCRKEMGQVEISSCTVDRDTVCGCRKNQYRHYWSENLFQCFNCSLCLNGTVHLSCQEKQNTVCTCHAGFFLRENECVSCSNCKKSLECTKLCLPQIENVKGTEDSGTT
Assay: yeast display SC50

B1: A10D (designed binder)
chain: SMEEEVEKADKEYEKKKKEAIEKHLEKLKAKDKEAAERFLKELEEAAKEYAKDEAKTMSEEEAKRRAKKYKEKVLLSELSEEEQKEIKEAEEKLVRTILKYVEEAAK
apparent Kd (screen): 0.49 nM

B2: A47T (designed binder)
chain: SMEEEVEKAAKEYEKKKKEAIEKHLEKLKAKDKEAAERFLKELEEATKEYAKDEAKTMSEEEAKRRAKKYKEKVLLSELSEEEQKEIKEAEEKLVRTILKYVEEAAK
apparent Kd (screen): 0.653 nM

B3: A63N (designed binder)
chain: SMEEEVEKAAKEYEKKKKEAIEKHLEKLKAKDKEAAERFLKELEEAAKEYAKDEAKTMSEEENKRRAKKYKEKVLLSELSEEEQKEIKEAEEKLVRTILKYVEEAAK
apparent Kd (screen): 6.43 nM

B4: Q84W (designed binder)
chain: SMEEEVEKAAKEYEKKKKEAIEKHLEKLKAKDKEAAERFLKELEEAAKEYAKDEAKTMSEEEAKRRAKKYKEKVLLSELSEEEWKEIKEAEEKLVRTILKYVEEAAK
apparent Kd (screen): 12.5 nM

B5: A47W (designed binder)
chain: SMEEEVEKAAKEYEKKKKEAIEKHLEKLKAKDKEAAERFLKELEEAWKEYAKDEAKTMSEEEAKRRAKKYKEKVLLSELSEEEQKEIKEAEEKLVRTILKYVEEAAK
apparent Kd (screen): 3 nM

B6: K18V (designed binder)
chain: SMEEEVEKAAKEYEKKKVEAIEKHLEKLKAKDKEAAERFLKELEEAAKEYAKDEAKTMSEEEAKRRAKKYKEKVLLSELSEEEQKEIKEAEEKLVRTILKYVEEAAK
apparent Kd (screen): 1.27 nM

B7: A9P (designed binder)
chain: SMEEEVEKPAKEYEKKKKEAIEKHLEKLKAKDKEAAERFLKELEEAAKEYAKDEAKTMSEEEAKRRAKKYKEKVLLSELSEEEQKEIKEAEEKLVRTILKYVEEAAK
apparent Kd (screen): 13.8 nM

B8: K52T (designed binder)
chain: SMEEEVEKAAKEYEKKKKEAIEKHLEKLKAKDKEAAERFLKELEEAAKEYATDEAKTMSEEEAKRRAKKYKEKVLLSELSEEEQKEIKEAEEKLVRTILKYVEEAAK
apparent Kd (screen): 0.446 nM

B9: A10L (designed binder)
chain: SMEEEVEKALKEYEKKKKEAIEKHLEKLKAKDKEAAERFLKELEEAAKEYAKDEAKTMSEEEAKRRAKKYKEKVLLSELSEEEQKEIKEAEEKLVRTILKYVEEAAK
apparent Kd (screen): 0.956 nM

B10: D32S (designed binder)
chain: SMEEEVEKAAKEYEKKKKEAIEKHLEKLKAKSKEAAERFLKELEEAAKEYAKDEAKTMSEEEAKRRAKKYKEKVLLSELSEEEQKEIKEAEEKLVRTILKYVEEAAK
apparent Kd (screen): 0.446 nM

B11: K8A (designed binder)
chain: SMEEEVEAAAKEYEKKKKEAIEKHLEKLKAKDKEAAERFLKELEEAAKEYAKDEAKTMSEEEAKRRAKKYKEKVLLSELSEEEQKEIKEAEEKLVRTILKYVEEAAK
apparent Kd (screen): 0.593 nM

B12: K48T (designed binder)
chain: SMEEEVEKAAKEYEKKKKEAIEKHLEKLKAKDKEAAERFLKELEEAATEYAKDEAKTMSEEEAKRRAKKYKEKVLLSELSEEEQKEIKEAEEKLVRTILKYVEEAAK
apparent Kd (screen): 0.49 nM

B13: A47I (designed binder)
chain: SMEEEVEKAAKEYEKKKKEAIEKHLEKLKAKDKEAAERFLKELEEAIKEYAKDEAKTMSEEEAKRRAKKYKEKVLLSELSEEEQKEIKEAEEKLVRTILKYVEEAAK
apparent Kd (screen): 0.49 nM

B14: K93T (designed binder)
chain: SMEEEVEKAAKEYEKKKKEAIEKHLEKLKAKDKEAAERFLKELEEAAKEYAKDEAKTMSEEEAKRRAKKYKEKVLLSELSEEEQKEIKEAEETLVRTILKYVEEAAK
apparent Kd (screen): 0.869 nM

B15: Q84Y (designed binder)
chain: SMEEEVEKAAKEYEKKKKEAIEKHLEKLKAKDKEAAERFLKELEEAAKEYAKDEAKTMSEEEAKRRAKKYKEKVLLSELSEEEYKEIKEAEEKLVRTILKYVEEAAK
apparent Kd (screen): 13.8 nM

B16: K29A (designed binder)
chain: SMEEEVEKAAKEYEKKKKEAIEKHLEKLAAKDKEAAERFLKELEEAAKEYAKDEAKTMSEEEAKRRAKKYKEKVLLSELSEEEQKEIKEAEEKLVRTILKYVEEAAK
apparent Kd (screen): 0.446 nM

B17: K100T (designed binder)
chain: SMEEEVEKAAKEYEKKKKEAIEKHLEKLKAKDKEAAERFLKELEEAAKEYAKDEAKTMSEEEAKRRAKKYKEKVLLSELSEEEQKEIKEAEEKLVRTILTYVEEAAK
apparent Kd (screen): 0.869 nM

B18: K85S (designed binder)
chain: SMEEEVEKAAKEYEKKKKEAIEKHLEKLKAKDKEAAERFLKELEEAAKEYAKDEAKTMSEEEAKRRAKKYKEKVLLSELSEEEQSEIKEAEEKLVRTILKYVEEAAK
apparent Kd (screen): 0.593 nM

B19: E37Q (designed binder)
chain: SMEEEVEKAAKEYEKKKKEAIEKHLEKLKAKDKEAAQRFLKELEEAAKEYAKDEAKTMSEEEAKRRAKKYKEKVLLSELSEEEQKEIKEAEEKLVRTILKYVEEAAK
apparent Kd (screen): 0.539 nM

B20: K68Q (designed binder)
chain: SMEEEVEKAAKEYEKKKKEAIEKHLEKLKAKDKEAAERFLKELEEAAKEYAKDEAKTMSEEEAKRRAQKYKEKVLLSELSEEEQKEIKEAEEKLVRTILKYVEEAAK
apparent Kd (screen): 0.653 nM

B21: K73V (designed binder)
chain: SMEEEVEKAAKEYEKKKKEAIEKHLEKLKAKDKEAAERFLKELEEAAKEYAKDEAKTMSEEEAKRRAKKYKEVVLLSELSEEEQKEIKEAEEKLVRTILKYVEEAAK
apparent Kd (screen): 10.4 nM

B22: Y70A (designed binder)
chain: SMEEEVEKAAKEYEKKKKEAIEKHLEKLKAKDKEAAERFLKELEEAAKEYAKDEAKTMSEEEAKRRAKKAKEKVLLSELSEEEQKEIKEAEEKLVRTILKYVEEAAK
apparent Kd (screen): 4.83 nM

B23: Y101W (designed binder)
chain: SMEEEVEKAAKEYEKKKKEAIEKHLEKLKAKDKEAAERFLKELEEAAKEYAKDEAKTMSEEEAKRRAKKYKEKVLLSELSEEEQKEIKEAEEKLVRTILKWVEEAAK
apparent Kd (screen): 2.73 nM

B24: K33S (designed binder)
chain: SMEEEVEKAAKEYEKKKKEAIEKHLEKLKAKDSEAAERFLKELEEAAKEYAKDEAKTMSEEEAKRRAKKYKEKVLLSELSEEEQKEIKEAEEKLVRTILKYVEEAAK
apparent Kd (screen): 0.869 nM

B25: K107I (designed binder)
chain: SMEEEVEKAAKEYEKKKKEAIEKHLEKLKAKDKEAAERFLKELEEAAKEYAKDEAKTMSEEEAKRRAKKYKEKVLLSELSEEEQKEIKEAEEKLVRTILKYVEEAAI
apparent Kd (screen): 1.86 nM

B26: E12I (designed binder)
chain: SMEEEVEKAAKIYEKKKKEAIEKHLEKLKAKDKEAAERFLKELEEAAKEYAKDEAKTMSEEEAKRRAKKYKEKVLLSELSEEEQKEIKEAEEKLVRTILKYVEEAAK
apparent Kd (screen): 1.05 nM

B27: K29H (designed binder)
chain: SMEEEVEKAAKEYEKKKKEAIEKHLEKLHAKDKEAAERFLKELEEAAKEYAKDEAKTMSEEEAKRRAKKYKEKVLLSELSEEEQKEIKEAEEKLVRTILKYVEEAAK
apparent Kd (screen): 0.593 nM

B28: A30K (designed binder)
chain: SMEEEVEKAAKEYEKKKKEAIEKHLEKLKKKDKEAAERFLKELEEAAKEYAKDEAKTMSEEEAKRRAKKYKEKVLLSELSEEEQKEIKEAEEKLVRTILKYVEEAAK
apparent Kd (screen): 0.956 nM

B29: E45Y (designed binder)
chain: SMEEEVEKAAKEYEKKKKEAIEKHLEKLKAKDKEAAERFLKELEYAAKEYAKDEAKTMSEEEAKRRAKKYKEKVLLSELSEEEQKEIKEAEEKLVRTILKYVEEAAK
apparent Kd (screen): 2.73 nM

B30: Y101H (designed binder)
chain: SMEEEVEKAAKEYEKKKKEAIEKHLEKLKAKDKEAAERFLKELEEAAKEYAKDEAKTMSEEEAKRRAKKYKEKVLLSELSEEEQKEIKEAEEKLVRTILKHVEEAAK
apparent Kd (screen): 0.49 nM

B31: K107L (designed binder)
chain: SMEEEVEKAAKEYEKKKKEAIEKHLEKLKAKDKEAAERFLKELEEAAKEYAKDEAKTMSEEEAKRRAKKYKEKVLLSELSEEEQKEIKEAEEKLVRTILKYVEEAAL
apparent Kd (screen): 2.73 nM

B32: E7G (designed binder)
chain: SMEEEVGKAAKEYEKKKKEAIEKHLEKLKAKDKEAAERFLKELEEAAKEYAKDEAKTMSEEEAKRRAKKYKEKVLLSELSEEEQKEIKEAEEKLVRTILKYVEEAAK
apparent Kd (screen): 3 nM

B33: K52F (designed binder)
chain: SMEEEVEKAAKEYEKKKKEAIEKHLEKLKAKDKEAAERFLKELEEAAKEYAFDEAKTMSEEEAKRRAKKYKEKVLLSELSEEEQKEIKEAEEKLVRTILKYVEEAAK
apparent Kd (screen): 1.05 nM

B34: E54P (designed binder)
chain: SMEEEVEKAAKEYEKKKKEAIEKHLEKLKAKDKEAAERFLKELEEAAKEYAKDPAKTMSEEEAKRRAKKYKEKVLLSELSEEEQKEIKEAEEKLVRTILKYVEEAAK
apparent Kd (screen): 7.07 nM

B35: A20Q (designed binder)
chain: SMEEEVEKAAKEYEKKKKEQIEKHLEKLKAKDKEAAERFLKELEEAAKEYAKDEAKTMSEEEAKRRAKKYKEKVLLSELSEEEQKEIKEAEEKLVRTILKYVEEAAK
apparent Kd (screen): 1.69 nM

From PMC12416549 (2024)
